# B1: FLAG-LONRF2-LonSBm (P5A) (enzyme)
# chain: MSPEPVPPPPPPQCPGCDRAEPIAQRLEEGDEAFRAGDYEMAAELFRSMLAGLAQPDRGLCLRLGDALARAGRLPEALGAFRGAARLGALRPEELEELAGGLVRAVGLRDRPLSAENPGGEPEAPGEGGPAPEPRAPRDLLGCPRCRRLLHKPVTLPCGLTVCKRCVEPGPARPQVRRVNVVLSGLLEKCFPAECRLRRLAGQARSLQRQQQPEAALLRCDQALELAPDDNSLLLLRAELYLTMKNYEQALQDASAACQNEPLLIKGHQVKAQALSGLGRSKEVLKEFLYCLALNPECNSVKKEAQKVMCEVLFSATANVHENLTSSIQSRLKAQGHSHMNAQALLEEGDAGSSENSSEKSDMLGNTNSSVLYFILGLHFEEDKKALESILPTAPSAGLKRQFPDDVEDAPDLNAPGKIPKKDLSLQRSPNSETEESQGLSLDVTDFECALCMRLLFEPVTTPCGHTFCLKCLERCLDHAPHCPLCKDKLSELLASRNFNITVLAEELIFRYLPDELSDRKRIYDEEMSELSNLTRDVAIFVCAMAFATVPCALHVFEPRYRLMIRRCMETGTKRFGMCLSAEHAGLSEYGCMLEIKDVRTFADGSSVVDAIGISRFRVLSHRHRDGYNTADIEYLEDEKVEGPEYEELAALHDSVHQQSVSWFASLQDRMKEQILSHFGVMPDREPEPQSNPSGPAWSWWILAVLALERKAQLAILGMTSLKERLLAIRRILVIITRKMNSRQELANARERNN
# notes: not shown: FLAG tag
# Target: T1, HA-tagged Fluc-DM (Fluc-HA-DM) (firefly, UniProt P08659 1-550 = luciferase)
# T1 construct: Model misfolded (structurally abnormal) protein, co-expressed in HeLa cells; Derived from the Addgene plasmid FlucDM-HA-GFP11-N1; also called R188Q/R261Q double mutant of firefly luciferase; aggregated mutant luciferase; not shown: HA tag
# Assay: co-immunoprecipitation with anti-FLAG M2 gel from HeLa lysates, immunoblot
binder,measurement,value
B1,binding result,no binding
